Reference: article PMC5951972

Biological target: MBP-TSR4+5, recombinant thrombospondin repeats 4 and 5 of human properdin expressed in tandem, fused to maltose-binding protein (human)
Test: SEC

MBP-TSR4+5, recombinant thrombospondin repeats 4 and 5 of human properdin expressed in tandem, fused to maltose-binding protein (domain or fragment)
percent migrating as dimer: 40%
stoichiometry N: 2
